Experimental data published in patent US20220348651A1, “ENTPD2 ANTIBODIES, COMBINATION THERAPIES, AND METHODS OF USING THE ANTIBODIES AND COMBINATION THERAPIES” (Novartis AG, priority 2019, published 2022).

Legend:
ENTPD2 = target: T1, ENTPD2 (Homo sapiens, UniProt Q9Y5L3); assay: Hybridoma mAb screen: cell-based assay for inhibition of ATP hydrolysis by ENTPD2; conditions: hybridoma-derived mAbs
T1 sequence (Q9Y5L3 1-495): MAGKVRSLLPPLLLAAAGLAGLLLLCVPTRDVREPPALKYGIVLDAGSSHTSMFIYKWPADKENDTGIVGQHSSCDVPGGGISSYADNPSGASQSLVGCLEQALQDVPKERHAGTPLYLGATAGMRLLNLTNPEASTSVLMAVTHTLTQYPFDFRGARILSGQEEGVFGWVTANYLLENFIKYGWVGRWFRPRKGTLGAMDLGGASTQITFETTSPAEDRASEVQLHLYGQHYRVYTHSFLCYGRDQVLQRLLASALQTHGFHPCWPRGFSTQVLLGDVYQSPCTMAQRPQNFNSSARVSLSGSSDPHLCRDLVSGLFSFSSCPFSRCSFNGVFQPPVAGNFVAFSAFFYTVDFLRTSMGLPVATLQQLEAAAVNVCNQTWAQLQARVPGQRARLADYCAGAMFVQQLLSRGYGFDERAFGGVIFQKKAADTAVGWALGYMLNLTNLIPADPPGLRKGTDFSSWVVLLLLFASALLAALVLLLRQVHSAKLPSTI
Description: Hybridoma-derived mAbs were screened in a cell-based assay for inhibition of ATP hydrolysis by ENTPD2.

[1] = target: T2, recombinant human ENTPD2 (residues 29-462) (Homo sapiens, UniProt Q9Y5L3); assay: Biochemical human ENTPD2 functional assay (Transcreener ADP2 TR-FRET); conditions: FIG. 15
T2 construct: residues 29-462 of human or cyno ENTPD2 were cloned into expression vector; GP67 signal peptide (N); made in house; host or cells: High Five (Trichoplusia ni) insect cells, baculovirus
T2 sequence (Q9Y5L3 29-462): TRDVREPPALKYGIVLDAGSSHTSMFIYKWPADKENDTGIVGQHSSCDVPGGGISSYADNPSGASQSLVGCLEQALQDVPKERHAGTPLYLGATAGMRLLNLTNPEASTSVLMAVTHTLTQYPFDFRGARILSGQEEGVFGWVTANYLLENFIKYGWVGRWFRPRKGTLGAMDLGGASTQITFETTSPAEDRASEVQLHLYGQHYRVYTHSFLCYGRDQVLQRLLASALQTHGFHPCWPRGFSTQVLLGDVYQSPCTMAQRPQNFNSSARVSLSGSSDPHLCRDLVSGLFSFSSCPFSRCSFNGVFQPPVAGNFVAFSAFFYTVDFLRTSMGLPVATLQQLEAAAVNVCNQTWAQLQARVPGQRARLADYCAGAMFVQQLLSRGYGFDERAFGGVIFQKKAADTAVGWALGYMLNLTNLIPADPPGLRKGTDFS
Description: Biochemical and cell-based functional assays were developed in-house to understand functional impact of anti-ENTPD2 Abs against purified extracellular domain of ENTPD2 (residues 29-462), as well as against the fully intact protein in the context of the native cell-based conformation. ENTPD2 hydrolyzes ATP to ADP, which can subsequently be detected using the HTRF Transcreener ADP2 TR-FRET Red Assay (BellBrook Labs, Madison, Wis.) where ENTPD2-produced ADP would compete with the ADP Tracer for binding to the anti-ADP-Tb antibody. The resulting signal is inversely proportional to the concentration of ADP in the sample.
To evaluate activity of anti-ENTPD2 Abs in the ENTPD2 biochemical assay, anti-ENTPD2 Abs and recombinant ENTPD2 (residues 29-462) were diluted in reaction buffer (50 mM HEPES, pH 7.1, 10 mM MgCl2, 0.01% BSA) to the desired concentration. 4 μL per well of the ENTPD2 solution and 2 μL per well of the Anti-ENTPD2 Ab solution were transferred into a ProxiPlate (PerkinElmer, Waltham, Mass.) and incubated for 30 min at room temperature. Reaction was then initiated via addition of 2 μl of ATP (final assay concentration of 1 μM), and the sample was incubated for 25 min at room temperature. […]
HTRF signal (Emission at 620 nm and 665 nm) was assessed in both assays using the Envision plate reader in HTRF mode (Perkin Elmer, Waltham, Mass.). HTRF ratio was determined using the following formula: HTRF ratio=R=Emission at 665 nm/Emission at 620 nm×10,000. Subsequently % Residual Activity and % Inhibition were determined as follows:
Where R0% is the HTRF ratio of the negative control (0% enzyme activity), and R100% is the HTRF ratio of the positive control (100% enzyme activity). Data were analyzed in Microsoft Excel and graphed using GraphPad's Prism 7.0 software and IC50 values were obtained using non-linear regression, log (agonist) vs. response-variable slope (four parameters) analysis.

B1: mAb17: hybridoma-derived lead inhibitory anti-human ENTPD2 mAb; VH/VL DNA SEQ ID NO: 234/238 (antibody, V domains shown)
VH: EVQLQQFGAELVKPGASVKISCKASGYTFTDYNMDWVKQSHGKSLEWIGDINPKYDISTYNQQFKGKATLTVDKSSSTAYMELRSLTSEDTAVYYCARRGFFLYYGINYYYFDVWGAGTTVTVSS
VL: QIVLTQSPAIMSASLGEEITLTCSASSSVSYIHWYQQKSGTSPTLLIYSTSNLASGVPSRFSGSGSGTFYSLTISSVEAEDAADYYCHQWSSYPWTFGGGTKLEIK
**Q.** Which “inhibition of ATP hydrolysis by ENTPD2” value (ENTPD2) does the source give for B1 here?
**A.** lead inhibitory mAbs

**Q.** What about the “inhibition of the catalytic activity of recombinant human ENTPD2” value (“inhibition … of recombinant human ENTPD2” for short) [1] of the same molecule?
**A.** potently inhibit

B2: mAb21: anti-human ENTPD2 antibody of Table 1; VH SEQ ID NO: 281, VL SEQ ID NO: 287 (antibody, V domains shown)
VH: EVQLQQSGPELVKPGASVKISCKTSGYTFTEYTMHWVKQSHGKSLEWIGGINPNNGITTYNQKFKGKATLTVDKSSSTAYMDLRSLTSEGSAVYYCARRGFPIYYYGTSLYYFDYWGQGTTLTVSS
VL: QIVLTQSPAIMSASLGEEITLTCSASSSVSYMHWYQQRSGTSPKLLIYTTSNLASGVPSRFSGSGSGTFYSLTISSVEAEDAADYYCHQWSSYPWTFGGGTKLEIK
**Q.** B2 was tested. Which “inhibition … of recombinant human ENTPD2” value [1] did it give?
**A.** potently inhibit

B3: mAb19: anti-human ENTPD2 antibody of Table 1; VH SEQ ID NO: 250, VL SEQ ID NO: 257 (antibody, V domains shown)
VH: EVQLQQFGAELVKPGTSVKISCKASGYTFTDYNMDWVKQSHGKSLEWIGDINPNYDITTYNQRFKGKATLTVDKSSSTAYMELRSLTSEDTAVYYCARRGFFPYYGNSYYYFDVWGAGTTVTVSS
VL: QIVLTQSPTIMSASLGEEITLTCSASSSVSYMHWYQQKSGTSPKLLIYSTSNLASGVPSRFSGSGSGTFYSLTISSVEAEDAADYYCHQWSNYPWTFGGGTKLEIK
**Q.** With B3 as the molecule, how does the “inhibition … of recombinant human ENTPD2” value [1] read?
**A.** potently inhibit

B4: mAb16: hybridoma-derived lead inhibitory anti-human ENTPD2 mAb; VH/VL DNA SEQ ID NO: 226/230 (antibody, V domains shown)
VH: DIQLQESGPGLVKPSQSLSLTCSVTGYSITSGYYWNWIRQFPGNKLEWMGYISYDGDNNYNPSLKNRISITRDTSKNQFFLKLSSVTTEDTATYYCAGGYYRYGLSYYYVMDYWGQGTSVTVSS
VL: DTVLTQSPASLAVSLGQRATISCKASQSVDYDGNSYMNWYQQKPGQPPKLLIYAASNLESGIPARFSGSGSGTDFTLNIHPVEEEDAATYYCQQSNEDPPTFGGGTKLEIK
**Q.** For B4, which “inhibition of ATP hydrolysis by ENTPD2” value (ENTPD2) is on record?
**A.** lead inhibitory mAbs
